Laboratory results: patent EP4350345A2

Experiments:
[1] = target: purified interference factor(s) from serum of Donor A; experiment: SPR, interference factor on CM5 chip
[2] = target: purified interference factor(s) from serum of Donor B; experiment: SPR, interference factor on CM5 chip
[3] = target: purified interference factor(s) from serum of Donor C; experiment: SPR, interference factor on CM5 chip
[4] = target: monoclonal antibody 21-4-3; experiment: SPR, 21-4-3 captured via anti-mouse IgG, 500 nM
monoclonal antibody 21-4-3, sequence (VH, as listed by the source, chain 1 of 2): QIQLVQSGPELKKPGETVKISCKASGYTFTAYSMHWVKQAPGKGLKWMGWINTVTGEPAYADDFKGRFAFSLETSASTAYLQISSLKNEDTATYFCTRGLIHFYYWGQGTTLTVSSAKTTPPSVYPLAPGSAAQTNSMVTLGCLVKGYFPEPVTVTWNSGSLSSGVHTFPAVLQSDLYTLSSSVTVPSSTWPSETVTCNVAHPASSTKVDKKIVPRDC
monoclonal antibody 21-4-3, sequence (VL, as listed by the source, chain 2 of 2): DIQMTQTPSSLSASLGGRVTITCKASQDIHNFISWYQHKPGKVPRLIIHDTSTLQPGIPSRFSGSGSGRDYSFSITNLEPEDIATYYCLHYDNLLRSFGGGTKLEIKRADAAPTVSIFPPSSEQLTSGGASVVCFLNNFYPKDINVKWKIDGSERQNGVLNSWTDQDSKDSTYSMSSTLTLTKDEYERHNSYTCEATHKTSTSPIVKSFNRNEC

Row | Binder | binding as % of Reference Sequence (=100%) [1] [%] | binding as % of Reference Sequence (=100%) [2] [%] | binding as % of Reference Sequence (=100%) [3] [%] | binding as % of Reference Sequence (=100%) [4] [%]
1 | Nanobody or Nanobody construct of SEQ ID NO: 38 (VHH) EVQLVESGGGLVQPGGSLRLSCAASGFTFSSYAMSWVRQAPGKGLEWVSGIKSSGDSTRYAGSVKGRFTISRDNAKNTLYLQMNSLRPEDTAVYYCAKSRVSRTGLYTYDNRGQGTLVTVSSGGGGSGGGGSGGGGSGGGGSEVQLVESGGGLVQPGGSLRLSCAASGRTFNNYAMGWFRQAPGKEREFVAAITRSGVRSGVSAIYGDSVKDRFTISRDNAKNTLYLQMNSLRPEDTAVYYCAASAIGSGALRRFEYDYSGQGTLVTVSSA | 9 | 25 | 7 | 
2 | Nanobody or Nanobody construct of SEQ ID NO: 42 (VHH) EVQLVESGGGLVQPGGSLRLSCAASGRTFSYNPMGWFRQAPGKGRELVAAISRTGGSTYYPDSVEGRFTISRDNAKRMVYLQMNSLRAEDTAVYYCAAAGVRAEDGRVRTLPSEYTFWGQGTQVTVSSAAAEVQLVESGGGLVQPGGSLRLSCAASGRTFSYNPMGWFRQAPGKGRELVAAISRTGGSTYYPDSVEGRFTISRDNAKRMVYLQMNSLRAEDTAVYYCAAAGVRAEDGRVRTLPSEYTFWGQGTQVTVSSA | 1 | 4 |  | 
3 | Nanobody or Nanobody construct of SEQ ID NO: 43 (VHH) DVQLVESGGGLVQPGGSLRLSCAASGFILDYYAIGWFRQAPGKEREGVLCIDASDDITYYADSVKGRFTISRDNSKNTVYLQMNSLRPEDTAVYYCATPIGLSSSCLLEYDYDYWGQGTLVTVSSGGGGSGGGSEVQLLESGGGLVQPGGSLRLSCAASGFTFRSFGMSWVRQAPGKGPEWVSSISGSGSDTLYADSVKGRFTISRDNSKNTLYLQMNSLRPEDTAVYYCTIGGSLSRSSQGTLVTVSSA | 3 | 20 |  | 3
4 | Nanobody or Nanobody construct of SEQ ID NO: 45 (VHH) VHH: EVQLVESGGGLVQAGGSLRLSCAASRSIGRLDRMGWYRHRTGEPRELVATITGGSSINYGDFVKGRFTISIDNAKNTVYLQMNNLKPEDTAVYYCNFNKYVTSRDTWGQGTQVTVSS | 0 |  |  | 22
5 | Nanobody or Nanobody construct of SEQ ID NO: 47 (VHH) VHH: EVQLVESGGGLVQPGGSLRLSCAASGSVFKINVMAWYRQAPGKGRELVAGIISGGSTSYADSVKGRFTISRDNAKNTLYLQMNSLRPEDTAVYYCAFITTESDYDLGRRYWGQGTLVTVSS | 1 |  |  | 4
6 | Nanobody or Nanobody construct of SEQ ID NO: 48 (VHH) VHH: EVQLVESGGGLVQPGGSLRLSCIASGLPFSTKSMGWFRQAPGKEREFVARISPGGTSRYYGDFVKGRFAISRDNAKNTTWLQMNSLKAEDTAVYYCASGERSTYIGSNYYRTNEYDYWGTGTQVTVSS | 0 |  |  | 3
7 | Nanobody or Nanobody construct of SEQ ID NO: 49 (VHH) VHH: EVQLLESGGGLVQPGGSLRLSCAASGLPFSTKSMGWFRQAPGKGREFVSRISPGGTSRYYGDFVKGRFTISRDNSKNTLYLQMNSLRAEDTAVYYCASGERSTYIGSNYYRTNEYDYWGQGTLVTVSS | 0 |  |  | 4
8 | Nanobody or Nanobody construct of SEQ ID NO: 65 (VHH) VHH: EVQLVESGGGLVQAGGSLRLSCAASRSIGRLDRMGWYRHRPGEPRELVATITGGSSINYGDSVKGRFTISIDNSKNTVYLQMNSLRPEDTAVYYCNFNKYVTSRDTWGQGTLVTVSS | 73 | 121 | 64 | 23
9 | Nanobody or Nanobody construct of SEQ ID NO: 66 (VHH) VHH: EVQLVESGGGSVQPGGSLRLSCAASRSIGRLDRMGWYRHRPGEPRELVATITGGSSINYGDSVKGRFTISIDNSKNTVYLQMNSLRPEDTAVYYCNFNKYVTSRDTWGQGTLVTVSS | 81 | 29 | 84 | 48
10 | Nanobody or Nanobody construct of SEQ ID NO: 67 (VHH) VHH: EVQLVESGGGLVQPGGSLRLSCAASRSIGRLDRMGWYRHRPGEPRELVATITGGSSINYGDSVKGRFTISIDNSKNTVYLQMNSLKPEDTAVYYCNFNKYVTSRDTWGQGTLVTVSS | 102 | 117 | 96 | 101
11 | Nanobody or Nanobody construct of SEQ ID NO: 68 (VHH) VHH: EVQLVESGGGLVQAGGSLRLSCAASRSIGRLDRMGWYRHRPGEPRELVATITGGSSINYGDSVKGRFTISIDNSKNTVYLQMNSLRPEDTAVYYCNFNKYVTSRDTWGQGTQVTVSS | 38 | 115 | 49 | 26
12 | Nanobody or Nanobody construct of SEQ ID NO: 69 (VHH) VHH: EVQLVESGGGLVQPGGSLRLSCAASRSIGRLDRMGWYRHRPGEPRELVATITGGSSINYGDSVKGRFTISIDNSKNTVYLQMNSLRPEDTAVYYCNFNKYVTSRDTWGQGTQVTVSS | 80 | 120 | 84 | 106
13 | Nanobody or Nanobody construct of SEQ ID NO: 70 (VHH) VHH: EVQLVESGGGLVQPGGSLRLSCAASRSIGRLDRMGWYRHRPGEPRELVATITGGSSINYGDSVKGRFTISIDNSKNTVYLQMNSLRPEDTAVYYCNFNKYVTSRDTWGQGTLVQVSS | 90 | 105 | 98 | 106
14 | Nanobody or Nanobody construct of SEQ ID NO: 71 (VHH) VHH: EVQLVESGGGLVQPGGSLRLSCAASRSIGRLDRMGWYRHRPGEPRELVATITGGSSINYGDSVKGRFTISIDNSKNTVYLQMNSLRPEDTAVYYCNFNKYVTSRDTWGQGTLVTVSG | 88 | 105 | 87 | 44
15 | Nanobody or Nanobody construct of SEQ ID NO: 78 (VHH) VHH: EVQLVESGGGLVRPGGSLRLSCAASRSIGRLDRMGWYRHRPGEPRELVATITGGSSINYGDSVKGRFTISIDNSKNTVYLQMNSLRPEDTAVYYCNFNKYVTSRDTWGQGTLVTVSS | 96 | 96 | 100 | 1
16 | Nanobody or Nanobody construct of SEQ ID NO: 80 (VHH) VHH: EVQLVESGGGLVQPGGSLRLSCAASRSIGRLDRMGWYRHRPGEPRELVATITGGSSINYGDSVKGRFTISIDNSKNTVYLQMNSLRPEDTAVYYCNFNKYVTSRDTWGQGTLVQVGG | 65 | 5 | 58 | 51
17 | Nanobody or Nanobody construct of SEQ ID NO: 81 (VHH) VHH: EVQLVESGGGVVQPGGSLRLSCAASRSIGRLDRMGWYRHRPGEPRELVATITGGSSINYGDSVKGRFTISIDNSKNTVYLQMNSLRPEDTAVYYCNFNKYVTSRDTWGQGTLVTVSS | 94 | 50 | 89 | 75
18 | Nanobody or Nanobody construct of SEQ ID NO: 82 (VHH) VHH: EVQLVESGGGLVQPGGSLRLSCAASRSIGRLDRMGWYRHRPGEPRELVATITGGSSINYGDSVKGRFTISIDNSKNTVYLQMNSLRAEDTAVYYCNFNKYVTSRDTWGQGTLVTVSS | 96 | 80 | 100 | 56
19 | Nanobody or Nanobody construct of SEQ ID NO: 83 (VHH) VHH: EVQLVESGGGLVQPGGSLRLSCAASRSIGRLDRMGWYRHRPGEPRELVATITGGSSINYGDSVKGRFTISIDNSKNTVYLQMNSLRPEDAAVYYCNFNKYVTSRDTWGQGTLVTVSS | 56 | 73 | 61 | 79
20 | Nanobody or Nanobody construct of SEQ ID NO: 84 (VHH) VHH: EVQLVESGGGLVQPGGSLRLSCAASRSIGRLDRMGWYRHRPGEPRELVATITGGSSINYGDSVKGRFTISIDNSKNTVYLQMNSLRPEDTAVYYCNFNKYVTSRDTWGQGTLVTVGS | 84 | 50 | 83 | 91
21 | Nanobody or Nanobody construct of SEQ ID NO: 85 (VHH) VHH: EVQLVESGGGSVQPGGSLRLSCAASRSIGRLDRMGWYRHRPGEPRELVATITGGSSINYGDSVKGRFTISIDNSKNTVYLQMNSLRPEDTAVYYCNFNKYVTSRDTWGQGTLVQVGG | 46 | 5 | 42 | 32
22 | Nanobody or Nanobody construct of SEQ ID NO: 87 (VHH) VHH: EVQLVESGGGSVQPGGSLRLSCAASRSIGRLDRMGWYRHRPGEPRELVATITGGSSINYGDSVKGRFTISIDNSKNTVYLQMNSLRPEDTAVYYCNFNKYVTSRDTWGQGTLVTVGG | 51 | 5 | 39 | 41
23 | Nanobody or Nanobody construct of SEQ ID NO: 89 (VHH) VHH: EVQLVESGGGSVQAGGSLRLSCAASRSIGRLDRMGWYRHRPGEPRELVATITGGSSINYGDSVKGRFTISIDNSKNTVYLQMNSLRPEDTAVYYCNFNKYVTSRDTWGQGTLVQVGG | 14 | 5 | 17 | 2
